Measured values as given in the supplement of paper PMC10567573.

B1: KLHL14 (parent)
chain: WLYCYDPVMDVWARKQDMNTKRAI

Variants of: B1
Experiment: protein stability index of a GFP-peptide fusion (GPS, HEK-293T) (PSI 1-6); higher = more stable
Settings: c terminus: a fixed tail appended
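Further: lentivirally expressed fusions sorted by FACS into six bins by GFP to DsRed ratio, PSI derived from sequencing read proportions per bin multiplied by bin number.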

Protein stability index: each site, then its substitutions
Y3: G 2.01; L 2.15; D 2.44; C 2.64; Q 1.97; M 1.96; I 2.06; F 1.65; P 2.7; H 2.22; R 1.25; E 2.33; V 2.86
V11: D 1.98; W 1.76; S 2.52; P 1.65; Q 1.98; T 2.32; M 1.61; N 2.21; F 2.32; I 1.43; E 2.3; C 1.91
D6: W 3.19; E 1.74; R 1.4; A 3.01; F 2.99; P 1.84; T 2.47; I 1.83; H 2.6; N 1.78; G 2.9
N19: I 1.57; L 2.05; V 2.55; T 1.88; H 1.57; S 1.83; G 2; E 1.81; D 2.27; R 1.83; K 2.02; C 1.76; A 1.59; F 1.52
V8: E 2.17; N 1.75; R 1.92; W 1.95; F 2.18; D 2.37; L 2.25; K 1.88; S 1.89; C 1.81; A 1.76; H 2.34; I 2.03; T 2.45; M 2.26; P 1.8
K21: E 1.91; T 1.83; F 1.86; H 1.94; Y 1.92; D 2.34; G 2.61; S 1.91; Q 1.86; M 2.08; W 2.2; R 1.83; V 1.91; C 2.23; P 1.58
L2: Y 2.52; A 2.24; V 2.16; W 1.56; G 2.29; T 2.11; M 1.9; I 1.84; R 2.06; F 1.45; N 2.19; S 2.39
D10: W 2.71; N 2.1; F 1.54; K 3.09; I 1.8; H 2.11; T 1.69; E 2.19; V 1.52; Q 2.74; C 1.91; L 2.82
C4: S 2.14; R 1.63; L 1.61; W 2.35; M 1.89; A 2.34; Y 2.13; I 1.96; E 2.41; V 2.08; N 2.5; K 2.04; D 2.06; T 2.84; G 2.58; Q 2.31; F 1.94; P 2.51
W1: Q 3.33; H 3.4; Y 2.25; I 1.92; T 3.09; E 3.72; K 2.55; G 2.4; N 3.29; L 2.53
A13: G 1.97; H 2.67; L 1.97; F 1.57; Y 1.87; P 1.82; N 2.46; R 1.8; W 2.44; M 1.96; I 2.18; V 2.13; S 2
M9: R 2.09; T 2.55; H 2.24; Q 2.6; E 1.74; V 1.65; G 1.77; N 2.18; P 2.32; K 2.02; L 2.17; W 1.64; S 2.26; I 1.9; D 1.92
M18: Q 2.08; Y 2.17; H 2.55; R 2.48; D 3.05; P 1.98; E 2.4; N 2.77; G 3.03; C 1.86; F 2.56; T 2.13; W 2.86; V 2.19; S 2.39
Y5: C 2.25; W 1.44; F 2.31; H 1.91; M 1.92; L 2.24; K 2.46; T 1.83; V 1.98; Q 1.6; P 2.9; N 2.08; D 2.61; E 2.23; I 1.93; G 2.43
D17: C 1.74; T 1.78; S 2.38; Y 1.67; A 2.33; M 2.2; H 2.21; E 1.8; N 1.91; R 2.34; W 2.58; Q 2.06
T20: N 1.85; H 1.88; V 2.11; A 2.07; K 2.15; Q 1.99; L 2.28; I 1.91; M 1.7; S 1.99; W 2.34; Y 2.02
Q16: G 2.25; P 1.85; D 2.15; C 1.81; K 1.7; T 1.83; Y 1.69; R 1.95; I 1.81; N 2.16; L 1.72; S 1.94; M 2.5; F 1.85; W 2.7
P7: D 2.28; N 1.84; R 1.87; H 2.1; K 2.24; G 1.94; I 1.93; A 2.87; V 2.08; C 2.33; S 1.62; Q 1.51; F 3.12; M 1.98; Y 2.15; T 1.64
R22: C 2.15; G 1.69; I 1.74; K 2; A 2.32; W 1.69; T 1.91; P 1.8; E 2.19; Y 2.01; Q 1.77; H 2.01; V 1.72; D 2.13; S 2.12; L 1.83; F 1.51
W12: S 1.5; M 1.77; V 1.95; F 1.86; D 2.23; C 2.09; T 2.11; I 1.47; Y 2.09; P 1.76; G 2.1; N 2.2; L 2.07
A23: T 1.76; K 1.97; G 1.51; C 1.78; R 2.62; P 1.58; H 2.02; I 1.57; E 2.33; D 2.22; V 1.63; L 1.6; F 2.24
I24: P 2.68; Y 2.45; G 2.13; A 2.36; S 2.86; F 1.42; E 2.31; K 2.44; Q 2.79; H 2.63; L 2.25; C 1.99; T 1.87
R14: K 1.9; L 2.36; I 1.84; M 1.93; Q 2.45; C 1.75; N 1.77; F 1.57; G 1.81; P 2.23; T 1.54; E 2.13; A 1.85; Y 1.81; S 1.88
K15: L 2.21; V 1.89; H 1.94; C 2.29; W 1.48; R 2.14; Q 1.95; Y 2.08; I 2.11; F 1.76; T 1.71; M 1.54; G 1.56; P 1.64; D 1.97; N 2.03
